# Patent US9908923 (MEDICAL COLLEGE OF WISCONSIN, dated 2018)
# Non-standard residues stand in square brackets, D forms with d. sY = N[C@@H](Cc1ccc(OS(=O)(=O)O)cc1)C(=O)O
# B1: 4ISIYTSD10 (unsulfated Tyr7 peptide) (peptide)
# peptide: Ac-ISIYTSD-NH2
# notes: Synthetic CXCR4 heptapeptide, residues 4-10; also called CXCR4 Ile4-Asp10 heptapeptide
# B2: 18SGDsYDSM24 (sTyr21 sulfopeptide) (peptide)
# peptide: Ac-SGD[sY]DSM-NH2
# SMILES: CSCC[C@H](NC(=O)[C@H](CO)NC(=O)[C@H](CC(=O)O)NC(=O)[C@H](Cc1ccc(OS(=O)(=O)O)cc1)NC(=O)[C@H](CC(=O)O)NC(=O)CNC(=O)[C@H](CO)NC(C)=O)C(N)=O
# notes: Synthetic CXCR4 heptapeptide, residues 18-24; also called sulfated Tyr21 peptide
# B3: 4ISIsYTSD10 (sTyr7 sulfopeptide) (peptide)
# peptide: Ac-ISI[sY]TSD-NH2
# SMILES: CC[C@H](C)[C@H](NC(C)=O)C(=O)N[C@@H](CO)C(=O)N[C@H](C(=O)N[C@@H](Cc1ccc(OS(=O)(=O)O)cc1)C(=O)N[C@H](C(=O)N[C@@H](CO)C(=O)N[C@@H](CC(=O)O)C(N)=O)[C@@H](C)O)[C@@H](C)CC
# notes: Synthetic CXCR4 heptapeptide, residues 4-10
# B4: 9SDNsYTEE15 (sTyr12 sulfopeptide) (peptide)
# peptide: Ac-SDN[sY]TEE-NH2
# SMILES: CC(=O)N[C@@H](CO)C(=O)N[C@@H](CC(=O)O)C(=O)N[C@@H](CC(N)=O)C(=O)N[C@@H](Cc1ccc(OS(=O)(=O)O)cc1)C(=O)N[C@H](C(=O)N[C@@H](CCC(=O)O)C(=O)N[C@@H](CCC(=O)O)C(N)=O)[C@@H](C)O
# notes: Synthetic CXCR4 heptapeptide, residues 9-15
# B5: FLAG-hCXCR4 Ile4Ala/Ile6Ala (receptor, human, UniProt P61073 1-352, looked up)
# chain: MEGASAYTSDNYTEEMGSGDYDSMKEPCFREENANFNKIFLPTIYSIIFLTGIVGNGLVILVMGYQKKLRSMTDKYRLHLSVADLLFVITLPFWAVDAVANWYFGNFLCKAVHVIYTVNLYSSVLILAFISLDRYLAIVHATNSQRPRKLLAEKVVYVGVWIPALLLTIPDFIFANVSEADDRYICDRFYPNDLWVVVFQFQHIMVGLILPGIVILSCYCIIISKLSHSKGHQKRKALKTTVILILAFFACWLPYYIGISIDSFILLEIIKQGCEFENTVHKWISITEALAFFHCCLNPILYAFLGAKFKTSAQHALTSVSRGSSLKILSKGKRGGHSSVSTESESSSFHSS
# notes: whole, on cells; also called CXCR4 (I4A/I6A); not shown: FLAG tag
# B6: CXCR41-38 (first 38 amino acids of CXCR4 preceded by a GlyMet dipeptide tag) (peptide)
# peptide: GMMEGISIYTSDNYTEEMGSGDYDSMKEPAFREENANFNK
# notes: range 1-38; Unsulfated recombinant peptide; also called CXCR4 N-terminal domain; CXCR1-38
# B7: 18SGDYDSM24 (Tyr21 peptide) (peptide)
# peptide: Ac-SGDYDSM-NH2
# notes: Synthetic CXCR4 heptapeptide, residues 18-24; also called unsulfated Tyr21 peptide
# B8: 9SDNYTEE15 (Tyr12 peptide) (peptide)
# peptide: Ac-SDNYTEE-NH2
# notes: Synthetic CXCR4 heptapeptide, residues 9-15; also called unsulfated Tyr12 peptide
# Target: T1, CXCL121 (constitutively monomeric CXCL12 variant, L55C/I58C) (Felis catus (Cat) (Felis silvestris …, UniProt O62657 22-89, engineered disulfide between Cys55 and Cys58))
# T1 construct: also called CXCL12 locked monomer; LM
# Test: NMR titrations (Table 1)
# Method: (§1) Each peptide was acetylated and amidated to create uncharged N- and C-termini, respectively. […] For each titration, the chemical shift change of every residue was used to identify the binding site and calculate the interaction affinity.
# (§2) Total peptide additions differed for individual peptide titrations but ranged from 0-160 equivalencies. Spectra were processed using in-house scripts and chemical shift tracking was performed using CARA software. Combined ^1H/^15N chemical shift perturbations were calculated as $((5\ \Delta\delta_H)^2+(\Delta\deltaNH)^2)^{0.5}$, where δ_H and $\deltaNH$ are the amide proton and nitrogen chemical shifts, respectively. Equilibrium dissociation constants (K_d) were determined by non-linear fitting of the combined ^1H/^15N_H chemical shift perturbations as a function of peptide concentration to a single-site quadratic equation. For a given interaction, residues with the largest chemical shift perturbations were fitted individually. The resulting K_d values and their respective fitting errors were then averaged to produce the reported affinity and standard deviation for that interaction.
# T1 sequence (O62657 22-89 L76C/I79C limits assumed): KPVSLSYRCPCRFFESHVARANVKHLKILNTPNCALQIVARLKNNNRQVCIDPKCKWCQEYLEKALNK
row,fold stronger binding than the sTyr7 sulfopeptide [fold],Binder
1,~5,B1

# Target: T2, CXCL122 (constitutively dimeric CXCL12 variant, L36C/A65C) (Homo sapiens (Human), UniProt P48061 22-89, disulfide-locked dimer through the engineered cysteines)
# T2 construct: it is described as a variant of CXCL12 containing L36C/A65C mutations; also called CXCL12 locked dimer; LD
# Test: NMR titrations
# Method: as §1, §2
# T2 sequence (P48061 22-89 L57C/A86C limits assumed): as the sequence (O62657 22-89 L76C/I79C limits assumed) above, with L36C, C55L, C58I, A65C counted along it
fold stronger binding than the unsulfated variant [fold],fold stronger binding than to CXCL12WT or CXCL121 [fold],Binder
4,20,B2

# Target: T3, CXCL12WT (wild type CXCL12) (Homo sapiens (Human), UniProt P48061 22-89)
# T3 construct: Recombinant, expressed and purified as previously described; [U-15N]-labelled in the NMR titrations; In monomer-dimer equilibrium; also called stromal cell-derived factor-1; SDF-1
# Test: NMR titrations
# Method: as §1, §2
# T3 sequence (P48061 22-89 limits assumed): as the sequence (O62657 22-89 L76C/I79C limits assumed) above, with C55L, C58I counted along it
row,fold higher affinity than the sTyr7 sulfopeptide [fold],Binder
1,2,B1

# Target: T2, CXCL122 (constitutively dimeric CXCL12 …)
# Test: ΔG = -RT ln Kd at 298 K from the NMR titration; non-specific binding to sY21 position
# Method: as §1, §2
row,ΔG [kcal/mol],Binder
1,-4.65,B3
2,-4.6,B1
3,-4.87,B4

# Target: T3, CXCL12WT (wild type CXCL12)
# Test: 125I-CXCL12 radioligand displacement on CXCR4 II/AA (I4A/I6A); displaced tracer 125I-CXCL12
row,binding result,Binder
1,binds,B5

# Target: T2, CXCL122 (constitutively dimeric CXCL12 …)
# Test: NMR 1H-15N HSQC titration of peptide into 15N-labelled chemokine, chemical shift perturbations fitted to a quadratic binding equation, 298 K
# Method: as §1, §2
row,Kd [µM],Binder
1,211,B2
2,0.9,B6
3,831,B7

# Target: T3, CXCL12WT (wild type CXCL12)
# Test: as above
# Method: as §1, §2
row,Kd [µM],Binder
1,1800,B2
2,4300,B3
3,1900,B1
4,2700,B7

# Target: T1, CXCL121 (constitutively monomeric …)
# Test: as above
# Method: as §1, §2
row,Kd [µM],Binder
1,2700,B8
2,1600,B2
3,6100,B3
4,3.5,B6
5,1100,B1
6,1500,B7
7,1800,B4

# Target: T2, CXCL122 (constitutively dimeric CXCL12 …)
# Test: ΔG = -RT ln Kd at 298 K from the NMR titration
# Method: as §1, §2
row,ΔG [kcal/mol],Binder
1,-4.74,B8
2,-5.01,B2
3,-8.24,B6
4,-4.2,B7

# Target: T3, CXCL12WT (wild type CXCL12)
# Test: ΔG = -RT ln Kd at 298 K from the NMR titration
# Method: as §1, §2
row,ΔG [kcal/mol],Binder
1,-3.65,B8
2,-3.74,B2
3,-3.22,B3
4,-3.71,B1
5,-3.5,B7
6,-4.09,B4

# Target: T1, CXCL121 (constitutively monomeric …)
# Test: ΔG = -RT ln Kd at 298 K from the NMR titration
# Method: as §1, §2
row,ΔG [kcal/mol],Binder
1,-3.5,B8
2,-3.81,B2
3,-3.02,B3
4,-7.43,B6
5,-4.03,B1
6,-3.85,B7
7,-3.74,B4
